Laboratory results reported in publication doi:10.1101/2024.07.09.602679 (bioRxiv, 2024).

T1: full-length Lot5 with N-terminal His6-TEV tag (S. cerevisiae, UniProt P34234 1-306)
T1 sequence (looked up): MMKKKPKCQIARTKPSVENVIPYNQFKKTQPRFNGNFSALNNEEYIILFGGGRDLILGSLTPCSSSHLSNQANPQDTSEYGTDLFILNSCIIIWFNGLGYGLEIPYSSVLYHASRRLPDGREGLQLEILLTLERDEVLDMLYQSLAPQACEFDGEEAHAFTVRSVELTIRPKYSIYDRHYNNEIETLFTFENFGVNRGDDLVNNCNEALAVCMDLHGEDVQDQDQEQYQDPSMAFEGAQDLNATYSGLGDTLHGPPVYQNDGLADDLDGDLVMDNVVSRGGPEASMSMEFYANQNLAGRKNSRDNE

T2: D1/D2/F/E/G pentamer (5Sm) (S. cerevisiae, UniProt Q02260 1-109; Q06217 1-110; P54999 1-86; Q12330 1-94; P40204 1-77)
T2 sequence (looked up) 1: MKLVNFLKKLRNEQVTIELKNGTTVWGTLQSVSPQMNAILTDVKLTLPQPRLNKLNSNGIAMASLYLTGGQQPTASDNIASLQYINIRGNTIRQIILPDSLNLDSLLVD
T2 sequence (looked up) 2: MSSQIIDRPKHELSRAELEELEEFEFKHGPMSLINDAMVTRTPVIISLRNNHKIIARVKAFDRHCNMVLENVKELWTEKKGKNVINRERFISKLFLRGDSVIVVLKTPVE
T2 sequence (looked up) 3: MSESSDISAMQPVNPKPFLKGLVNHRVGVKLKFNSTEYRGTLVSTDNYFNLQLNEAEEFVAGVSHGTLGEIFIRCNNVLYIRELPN
T2 sequence (looked up) 4: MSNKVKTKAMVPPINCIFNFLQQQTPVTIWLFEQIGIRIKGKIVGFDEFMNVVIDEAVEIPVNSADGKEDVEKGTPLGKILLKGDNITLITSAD
T2 sequence (looked up) 5: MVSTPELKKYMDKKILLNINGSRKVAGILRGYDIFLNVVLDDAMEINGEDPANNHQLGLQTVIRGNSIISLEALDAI

T3: Brr1/5Sm heterohexamer (S. cerevisiae, UniProt Q99177 1-341; Q02260 1-109; Q06217 1-110; P54999 1-86; Q12330 1-94; P40204 1-77)
T3 sequence (looked up) 1: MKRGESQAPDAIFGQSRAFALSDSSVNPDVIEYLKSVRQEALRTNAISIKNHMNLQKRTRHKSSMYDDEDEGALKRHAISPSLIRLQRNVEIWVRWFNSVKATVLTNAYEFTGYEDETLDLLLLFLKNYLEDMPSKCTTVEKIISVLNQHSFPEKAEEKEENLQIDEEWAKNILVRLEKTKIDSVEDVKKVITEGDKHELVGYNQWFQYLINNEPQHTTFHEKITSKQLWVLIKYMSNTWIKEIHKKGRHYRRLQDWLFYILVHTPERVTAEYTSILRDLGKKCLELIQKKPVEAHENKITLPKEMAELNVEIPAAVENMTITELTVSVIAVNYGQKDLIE
T3 sequence (looked up) 2: T2 sequence (looked up) 1
T3 sequence (looked up) 3: T2 sequence (looked up) 2
T3 sequence (looked up) 4: T2 sequence (looked up) 3
T3 sequence (looked up) 5: T2 sequence (looked up) 4
T3 sequence (looked up) 6: T2 sequence (looked up) 5

T4: Brr1Δ(122-197) with N-terminal His6-TEV tag (S. cerevisiae, UniProt Q99177 1-341, Δ(122-197))
T4 sequence (looked up): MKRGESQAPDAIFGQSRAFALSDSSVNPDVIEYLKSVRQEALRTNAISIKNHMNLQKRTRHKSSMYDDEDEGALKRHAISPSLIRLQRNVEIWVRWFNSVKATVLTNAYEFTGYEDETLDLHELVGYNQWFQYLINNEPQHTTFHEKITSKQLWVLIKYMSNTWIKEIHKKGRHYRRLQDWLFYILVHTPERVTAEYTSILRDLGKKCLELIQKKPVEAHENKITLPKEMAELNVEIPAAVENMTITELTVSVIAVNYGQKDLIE

B1: SmD3/B subcomplex, HT-tag removed (complex, S. cerevisiae)
chain 1: MSKIQVAHSSRLANLIDYKLRVLTQDGRVYIGQLMAFDKHMNLVLNECIEERVPKTQLDKLRPRKDSKDGTTLNIKVEKRVLGLTILRGEQILSTVVEDKPLLSK
chain 2: MTMNGIPVKLLNEAQGHIVSLELTTGATYRGKLVESEDSMNVQLRDVIATEPQGAVTHMDQIFVRGSQIKFIVVPDLLKNAPLFKKNS
B2: SmD1/D2 subcomplex, HT-tag removed (complex, S. cerevisiae)
chain 1: T2 sequence (looked up) 1
chain 2: T2 sequence (looked up) 2
B3: full-length Brr1, HT-tag removed (natural protein, S. cerevisiae, UniProt Q99177 1-341, looked up)
chain: T3 sequence (looked up) 1
B4: full-length Brr1 with N-terminal His6-TEV tag (natural protein, S. cerevisiae, UniProt Q99177 1-341, looked up)
chain: T3 sequence (looked up) 1
B5: Lot5 (residues 1-227) with N-terminal His6-TEV tag (domain or fragment, S. cerevisiae, UniProt P34234 1-227, looked up)
chain: MMKKKPKCQIARTKPSVENVIPYNQFKKTQPRFNGNFSALNNEEYIILFGGGRDLILGSLTPCSSSHLSNQANPQDTSEYGTDLFILNSCIIIWFNGLGYGLEIPYSSVLYHASRRLPDGREGLQLEILLTLERDEVLDMLYQSLAPQACEFDGEEAHAFTVRSVELTIRPKYSIYDRHYNNEIETLFTFENFGVNRGDDLVNNCNEALAVCMDLHGEDVQDQDQEQ
B6: SmF/E/G subcomplex, HT-tag removed (complex, S. cerevisiae)
chain 1: T2 sequence (looked up) 3
chain 2: T2 sequence (looked up) 4
chain 3: T2 sequence (looked up) 5

What was measured:
[1] = target: T1, full-length Lot5 with N-terminal …; assay: pull-down
[2] = target: B5; assay: pull-down
[3] = target: T2, D1/D2/F/E/G pentamer (5Sm); assay: SEC
[4] = target: T2, D1/D2/F/E/G pentamer (5Sm); assay: pull-down
Brr1/5Sm heterohexamer = target: T3, Brr1/5Sm heterohexamer; assay: SEC
[5] = target: B3; assay: SEC
[6] = target: T4, Brr1Δ(122-197) with N-terminal His6-TEV …; assay: pull-down
[7] = target: B4; assay: pull-down

Row | binding result [1] | binding result [2] | binding result [3] | also measured | Binder
1 | binds | binds | – | – | B1
2 | binds | binds | – | – | B2
3 | – | – | binds | – | B3
4 | – | – | – | binding result [4]: binds | B4
5 | – | – | binds | binding result (Brr1/5Sm heterohexamer): binds | B5
6 | – | – | – | binding result [5]: binds; binding result [6]: binds; binding result [7]: binds | B6
